According to patent US20240400614A1, “CLEAVABLE PEPTIDES AND METHODS OF USE THEREOF” (Bright Peak Therapeutics AG, priority 2023, published 2024):
Square brackets hold non-standard residues; d marks the D form. Ends that are not written are not given here. Tyr(3-NO2) = N[C@@H](Cc1ccc(O)c([N+](=O)[O-])c1)C(=O)O; 2Abz = Nc1ccccc1C(=O)O

Tests used:
Format in all cases: biochemical
[1] = molecular target: Kallikrein-3 (Homo sapiens, UniProt P07288); assay: FRET peptide cleavage efficiency with Kallikrein-3; conditions: peptide 200 uM, Kallikrein-3 2 μg/ml, 37° C., pH 8
[2] = molecular target: T1, MMP-9 (Homo sapiens, UniProt P14780); assay: FRET peptide cleavage efficiency with MMP-9 (standard pH 7.5; also pH 6.5); conditions: for % cleavage MMP-9 t = 15 min: t = 15 min (Table 9); for % cleavage MMP-9 t = 60 min: t = 60 min (Table 9); for % cleavage MMP-9 t = 120 min: t = 120 min (Table 9)
T1 construct: purchased SIGMA PF024

[3] = molecular target: uPA (Homo sapiens, UniProt P00749); assay: FRET peptide cleavage efficiency with uPA; conditions: 200 uM linker, 1 ug/ml protease, 37° C., buffer A pH 8.5
[4] = molecular target: T2, matriptase (Homo sapiens, UniProt Q9Y5Y6); assay: FRET peptide cleavage efficiency with matriptase; conditions: 200 uM linker, 1 ug/ml protease, 37° C., buffer B pH 9.0
T2 construct: purchased R&D Systems 3946-SEB
T2 sequence (Q9Y5Y6 615-855 limits assumed): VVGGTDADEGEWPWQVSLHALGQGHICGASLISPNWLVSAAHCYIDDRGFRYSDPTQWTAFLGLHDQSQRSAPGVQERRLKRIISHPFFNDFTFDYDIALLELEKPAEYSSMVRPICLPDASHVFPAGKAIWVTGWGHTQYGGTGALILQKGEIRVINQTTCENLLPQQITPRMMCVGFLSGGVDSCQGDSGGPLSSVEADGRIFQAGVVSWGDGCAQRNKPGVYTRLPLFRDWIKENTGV

[5] = molecular target: T3, MMP-2 (Homo sapiens, UniProt P08253); assay: FRET peptide cleavage efficiency with MMP-2
T3 construct: purchased SIGMA PF023
T3 sequence (P08253 110-660): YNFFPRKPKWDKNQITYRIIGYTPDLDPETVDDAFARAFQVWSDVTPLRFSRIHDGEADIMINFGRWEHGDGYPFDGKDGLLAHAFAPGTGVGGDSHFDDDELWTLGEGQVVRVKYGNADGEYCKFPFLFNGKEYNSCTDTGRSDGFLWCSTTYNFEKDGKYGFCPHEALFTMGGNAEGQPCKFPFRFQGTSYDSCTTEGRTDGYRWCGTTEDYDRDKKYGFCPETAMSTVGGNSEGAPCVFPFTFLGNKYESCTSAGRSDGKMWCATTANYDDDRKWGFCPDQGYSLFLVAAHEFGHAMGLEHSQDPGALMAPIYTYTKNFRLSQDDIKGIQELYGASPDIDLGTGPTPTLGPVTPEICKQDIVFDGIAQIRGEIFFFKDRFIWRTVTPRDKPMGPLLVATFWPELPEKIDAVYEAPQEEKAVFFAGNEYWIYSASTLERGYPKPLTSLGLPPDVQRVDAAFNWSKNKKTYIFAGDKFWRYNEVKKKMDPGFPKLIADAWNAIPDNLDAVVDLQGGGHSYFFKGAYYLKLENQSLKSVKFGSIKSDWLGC

[6] = molecular target: T4, MMP-7 (Homo sapiens, UniProt P09237); assay: FRET peptide cleavage efficiency with MMP-7 (standard pH 7.5; also pH 6.5); conditions: for % cleavage MMP-7 t = 15 min: t = 15 min (Table 9); for % cleavage MMP-7 t = 60 min: t = 60 min (Table 9); for % cleavage MMP-7 t = 120 min: t = 120 min (Table 9)
T4 construct: purchased SIGMA CC1059
T4 sequence (P09237 95-267): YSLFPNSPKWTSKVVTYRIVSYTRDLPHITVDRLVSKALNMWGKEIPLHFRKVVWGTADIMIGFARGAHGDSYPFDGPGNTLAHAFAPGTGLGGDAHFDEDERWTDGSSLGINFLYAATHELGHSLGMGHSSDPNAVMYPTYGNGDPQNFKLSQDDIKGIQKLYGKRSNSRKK

[7] = t = 15 min, 200 uM linker, 1 ug/ml protease, 37° C., buffer C pH 7.5
[8] = t = 60 min, 200 uM linker, 1 ug/ml protease, 37° C., buffer C pH 7.5
[9] = t = 120 min, 200 uM linker, 1 ug/ml protease, 37° C., buffer C pH 7.5

T1 sequence (P14780 94-707): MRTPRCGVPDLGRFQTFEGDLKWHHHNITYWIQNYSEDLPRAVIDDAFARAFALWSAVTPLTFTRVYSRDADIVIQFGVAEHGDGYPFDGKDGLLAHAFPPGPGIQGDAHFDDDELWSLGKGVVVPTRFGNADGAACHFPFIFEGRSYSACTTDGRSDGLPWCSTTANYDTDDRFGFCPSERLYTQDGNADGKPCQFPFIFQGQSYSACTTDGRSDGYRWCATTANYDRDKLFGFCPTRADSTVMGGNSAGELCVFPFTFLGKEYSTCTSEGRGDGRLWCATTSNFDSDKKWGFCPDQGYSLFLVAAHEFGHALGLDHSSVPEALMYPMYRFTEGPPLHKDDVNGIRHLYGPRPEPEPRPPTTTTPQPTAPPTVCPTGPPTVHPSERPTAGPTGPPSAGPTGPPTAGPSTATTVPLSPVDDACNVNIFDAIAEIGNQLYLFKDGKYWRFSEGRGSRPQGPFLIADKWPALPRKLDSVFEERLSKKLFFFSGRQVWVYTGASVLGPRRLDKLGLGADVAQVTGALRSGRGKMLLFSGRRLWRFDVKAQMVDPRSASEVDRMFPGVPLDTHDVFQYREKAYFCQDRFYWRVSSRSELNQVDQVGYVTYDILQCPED
Sequence of Kallikrein-3 (P07288 25-261, species assumed): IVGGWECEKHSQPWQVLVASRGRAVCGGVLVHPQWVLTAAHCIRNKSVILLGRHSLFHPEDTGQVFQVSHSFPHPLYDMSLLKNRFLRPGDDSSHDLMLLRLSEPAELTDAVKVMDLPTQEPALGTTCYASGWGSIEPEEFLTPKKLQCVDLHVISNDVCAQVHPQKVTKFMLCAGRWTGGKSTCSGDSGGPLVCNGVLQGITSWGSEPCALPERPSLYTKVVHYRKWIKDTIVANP

| Substance | Kallikrein-3 t = 1 h % cleavage [1] [%] | Kallikrein-3 t = 3 h % cleavage [1] [%] | Kallikrein-3 t = 6 h % cleavage [1] [%] | Kallikrein-3 t = 8 h % cleavage [1] [%] | % cleavage MMP-9 t = 15 min [2] [%] | % cleavage MMP-9 t = 60 min [2] [%] | % cleavage MMP-9 t = 120 min [2] [%] | % cleavage uPA t = 15 min [3] [%] | % cleavage uPA t = 60 min [3] [%] | % cleavage uPA t = 120 min [3] [%] | % cleavage Matriptase t = 15 min [4] [%] | % cleavage Matriptase t = 60 min [4] [%] | % cleavage Matriptase t = 120 min [4] [%] | % cleavage MMP-2 t = 15 min ([5]; t = 15 min (Table 9)) [%] | % cleavage MMP-2 t = 15 min [5, 7] [%] | % cleavage MMP-2 t = 60 min ([5]; t = 60 min (Table 9)) [%] | % cleavage MMP-2 t = 60 min [5, 8] [%] | % cleavage MMP-2 t = 120 min ([5]; t = 120 min (Table 9)) [%] | % cleavage MMP-2 t = 120 min [5, 9] [%] | % cleavage MMP-7 t = 15 min [6] [%] | also measured |
| --- | --- | --- | --- | --- | --- | --- | --- | --- | --- | --- | --- | --- | --- | --- | --- | --- | --- | --- | --- | --- | --- |
| HSSKLQYFGKL ([2Abz]HSSKLQYFGKL[Tyr(3-NO2)]-NH2) [LNK061] | 0 | 0 | 0 | 0 | 0 | 0 | 0 | 0 | 0 | 0 | 0 | 0 | 0 | 23 | 23 | 74 | 74 | 100 | 100 | 0 | % cleavage MMP-7 t = 60 min [6]: 0%; % cleavage MMP-7 t = 120 min [6]: 0% |
| RGRRHSSKLQPLGYFGKL ([2Abz]RGRRHSSKLQPLGYFGKL[Tyr(3-NO2)]-NH2) [LNK062] | 28 | 79 | 100 | 100 | 41 | 100 | 100 | 0 | 0 | 0 | 66 | 100 | 100 | 71 | 71 | 100 | 100 | 100 | 100 | 0 | % cleavage MMP-7 t = 60 min [6]: 0%; % cleavage MMP-7 t = 120 min [6]: 0% |
| SGRHSSKLQPLGYFGKL ([2Abz]SGRHSSKLQPLGYFGKL[Tyr(3-NO2)]-NH2) [LNK063] | 7 | 20 | 37 | 45 | 23 | 93 | 100 | 0 | 0 | 0 | 9 | 35 | 62 | 82 | 82 | 100 | 100 | 100 | 100 | 2 | % cleavage MMP-7 t = 60 min [6]: 3%; % cleavage MMP-7 t = 120 min [6]: 0% |
| GSGSGSGS ([2Abz]GSGSGSGS[Tyr(3-NO2)]-NH2) [LNK064] | 0 | 0 | 0 | 0 | 0 | 0 | 0 | 0 | 0 | 0 | 0 | 0 | 0 | 0 | 0 | 0 | 0 | 0 | 0 | 0 | % cleavage MMP-7 t = 60 min [6]: 0%; % cleavage MMP-7 t = 120 min [6]: 0% |
| RSSYRSL ([2Abz]RSSYRSL[Tyr(3-NO2)]-NH2) [LNK075] | 49 | 83 | 94 | 100 | 1 | 5 | 10 | 2 | 9 | 19 | 8 | 33 | 56 | 16 | 16 | 60 | 60 | 86 | 86 | 0 | % cleavage MMP-7 t = 60 min [6]: 0%; % cleavage MMP-7 t = 120 min [6]: 0% |
| RGRRHSSKLQ ([2Abz]RGRRHSSKLQ[Tyr(3-NO2)]-NH2) [LNK052] | 8 | 31 | 55 | 67 | 0 | 0 | 0 | 0 | 0 | 0 | 60 | 100 | 100 | 1 | 1 | 2 | 2 | 4 | 4 | 0 | % cleavage MMP-7 t = 60 min [6]: 0%; % cleavage MMP-7 t = 120 min [6]: 0% |
| RSSYYSL ([2Abz]RSSYYSL[Tyr(3-NO2)]-NH2) [LNK076] | 0 | 0 | 0 | 0 |  |  |  | 0 | 0 | 0 | 0 | 0 | 0 |  | 19 |  | 69 |  | 92 |  |  |
| KSKQHSL ([2Abz]KSKQHSL[Tyr(3-NO2)]-NH2) [LNK077] | 9 | 30 | 56 | 69 |  |  |  | 0 | 0 | 0 | 0 | 0 | 0 |  | 3 |  | 4 |  | 6 |  |  |
| GSSVYSGR ([2Abz]GSSVYSGR[Tyr(3-NO2)]-NH2) [LNK080] | 16 | 41 | 68 | 79 |  |  |  | 4 | 17 | 28 | 2 | 6 | 10 |  | 1 |  | 3 |  | 5 |  |  |
